Results from the supplement of paper PMC9112550, “Optimization of the antimicrobial peptide Bac7 by deep mutational scanning” (BMC Biology, 2022).

Test system: Escherichia coli TOP10
Assay: shrunken log2 fold change of peptide-encoding DNA abundance (4.5 h post-induction vs induction); higher = less antimicrobial activity (less host growth inhibition)
Details: time post-induction: 4.5 h; library: site-saturation at positions 5, 18, 19, 20
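Further: peptides expressed intracellularly from a pBAD plasmid library in pooled LB shake-flask culture, induced with 0.3% L-arabinose, DNA abundance read by NGS, three biological replicates, DESeq2 with apeglm shrinkage.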

| Sequence | shrunken log2 fold change |
| --- | --- |
| RRIRSRPPRLPRPRPRPWRRPRP | 0.0927 |
| RRIRMRPPRLPRPRPRPQIKPRP | -0.0128 |
| RRIRIRPPRLPRPRPRPYWWPRP | -0.259 |
| RRIRYRPPRLPRPRPRPNWSPRP | 0.0306 |
| RRIRKRPPRLPRPRPRPTNGPRP | 0.0599 |
| RRIRGRPPRLPRPRPRPPRHPRP | 0.818 |
| RRIRDRPPRLPRPRPRPTKQPRP | 0.188 |
| RRIRRRPPRLPRPRPRPVAGPRP | 0.453 |
| RRIRMRPPRLPRPRPRPRGPPRP | 0.684 |
| RRIRGRPPRLPRPRPRPPPCPRP | 1.16 |
| RRIRERPPRLPRPRPRPIWNPRP | -0.0842 |
| RRIRERPPRLPRPRPRPVYHPRP | -1.35 |
| RRIRSRPPRLPRPRPRPEKVPRP | -0.1 |
| RRIRNRPPRLPRPRPRPDKFPRP | -0.188 |
| RRIRLRPPRLPRPRPRPHAFPRP | -0.208 |
| RRIRDRPPRLPRPRPRPSKKPRP | -0.217 |
| RRIRKRPPRLPRPRPRPNREPRP | 0.0158 |
| RRIRYRPPRLPRPRPRPHMMPRP | -1.6 |
| RRIRGRPPRLPRPRPRPKSTPRP | 1.41 |
| RRIRKRPPRLPRPRPRPMIVPRP | 0.00271 |
| RRIRIRPPRLPRPRPRPRNPPRP | -0.0124 |
| RRIRRRPPRLPRPRPRPMNSPRP | -0.101 |
| RRIRCRPPRLPRPRPRPMSVPRP | -0.0655 |
| RRIRGRPPRLPRPRPRPMPQPRP | 0.255 |
| RRIRPRPPRLPRPRPRPSPNPRP | 1.14 |

| Sequence | shrunken log2 fold change |
| --- | --- |
| RRIRWRPPRLPRPRPRPSEFPRP | 0.144 |
| RRIRVRPPRLPRPRPRPVLRPRP | 0.187 |
| RRIRERPPRLPRPRPRPEMDPRP | 0.125 |
| RRIRHRPPRLPRPRPRPDIAPRP | 0.00497 |
| RRIRPRPPRLPRPRPRPAGDPRP | 0.387 |
| RRIRIRPPRLPRPRPRPMVFPRP | -0.263 |
| RRIRSRPPRLPRPRPRPNIVPRP | 0.238 |
| RRIRERPPRLPRPRPRPIRVPRP | -0.679 |
| RRIRFRPPRLPRPRPRPMVVPRP | -0.0152 |
| RRIRNRPPRLPRPRPRPVFCPRP | 0.36 |
| RRIRKRPPRLPRPRPRPINQPRP | -0.166 |
| RRIRPRPPRLPRPRPRPGKMPRP | 0.0379 |
| RRIRCRPPRLPRPRPRPFSVPRP | -0.236 |
| RRIRGRPPRLPRPRPRPDALPRP | 0.889 |
| RRIRVRPPRLPRPRPRPGDMPRP | -0.136 |
| RRIRSRPPRLPRPRPRPAVWPRP | 0.765 |
| RRIRYRPPRLPRPRPRPTKVPRP | -0.235 |
| RRIRQRPPRLPRPRPRPLNQPRP | -0.155 |
| RRIRIRPPRLPRPRPRPKGCPRP | -0.00865 |
| RRIRERPPRLPRPRPRPPFGPRP | 0.577 |
| RRIRIRPPRLPRPRPRPYYCPRP | -0.529 |
| RRIRGRPPRLPRPRPRPVMRPRP | 0.749 |
| RRIRIRPPRLPRPRPRPLHDPRP | 0.181 |
| RRIRHRPPRLPRPRPRPKACPRP | -0.01 |
| RRIRKRPPRLPRPRPRPGMWPRP | 0.438 |

| Sequence | shrunken log2 fold change |
| --- | --- |
| RRIRDRPPRLPRPRPRPLTGPRP | 0.266 |
| RRIRCRPPRLPRPRPRPMPDPRP | -0.0379 |
| RRIRFRPPRLPRPRPRPYKEPRP | -0.0907 |
| RRIRFRPPRLPRPRPRPSMGPRP | -0.648 |
| RRIRPRPPRLPRPRPRPPESPRP | 0.841 |
| RRIRNRPPRLPRPRPRPQMSPRP | -0.0396 |
| RRIRVRPPRLPRPRPRPQRDPRP | -0.171 |
| RRIRLRPPRLPRPRPRPEQGPRP | 1.07 |
| RRIRWRPPRLPRPRPRPEAKPRP | 0.0319 |
| RRIRTRPPRLPRPRPRPSFQPRP | -0.427 |
| RRIRMRPPRLPRPRPRPKYRPRP | 0.0666 |
| RRIRVRPPRLPRPRPRPYAAPRP | -0.3 |
| RRIRTRPPRLPRPRPRPNPCPRP | 0.0479 |
| RRIRSRPPRLPRPRPRPYCEPRP | -0.352 |
| RRIRRRPPRLPRPRPRPNCNPRP | -0.0828 |
| RRIRTRPPRLPRPRPRPHQWPRP | -0.196 |
| RRIRIRPPRLPRPRPRPQPLPRP | -0.371 |
| RRIRARPPRLPRPRPRPRHYPRP | -0.158 |
| RRIRYRPPRLPRPRPRPAYIPRP | -0.00172 |
| RRIRARPPRLPRPRPRPRQLPRP | 0.449 |
| RRIRIRPPRLPRPRPRPYAGPRP | -0.417 |
| RRIRPRPPRLPRPRPRPNKHPRP | -0.374 |
| RRIRMRPPRLPRPRPRPHPFPRP | 0.169 |
| RRIRLRPPRLPRPRPRPMYIPRP | -0.172 |
| RRIRFRPPRLPRPRPRPDYNPRP | -0.422 |

| Sequence | shrunken log2 fold change |
| --- | --- |
| RRIRYRPPRLPRPRPRPIQYPRP | -0.18 |
| RRIRTRPPRLPRPRPRPIQMPRP | -0.286 |
| RRIRYRPPRLPRPRPRPKDKPRP | -0.536 |
| RRIRERPPRLPRPRPRPAALPRP | -0.0784 |
| RRIRPRPPRLPRPRPRPLLHPRP | 0.0277 |
| RRIRHRPPRLPRPRPRPTYEPRP | 0.15 |
| RRIRDRPPRLPRPRPRPKIEPRP | -0.305 |
| RRIRDRPPRLPRPRPRPARQPRP | 0.212 |
| RRIRARPPRLPRPRPRPKHPPRP | 0.199 |
| RRIRDRPPRLPRPRPRPILHPRP | -0.0215 |
| RRIRGRPPRLPRPRPRPYFMPRP | -0.389 |
| RRIRVRPPRLPRPRPRPSIFPRP | -0.606 |
| RRIRPRPPRLPRPRPRPAGWPRP | 0.765 |
| RRIRIRPPRLPRPRPRPNTTPRP | -0.357 |
| RRIRRRPPRLPRPRPRPQPCPRP | -0.101 |
| RRIRGRPPRLPRPRPRPPCCPRP | 0.478 |
| RRIRCRPPRLPRPRPRPQKAPRP | 0.265 |
| RRIRQRPPRLPRPRPRPWKTPRP | -0.0168 |
| RRIRYRPPRLPRPRPRPKWFPRP | -0.87 |
| RRIRNRPPRLPRPRPRPGVVPRP | 0.176 |
| RRIRTRPPRLPRPRPRPRHEPRP | -0.13 |
| RRIRYRPPRLPRPRPRPCWAPRP | -0.434 |
| RRIRNRPPRLPRPRPRPMFHPRP | -0.678 |
| RRIRNRPPRLPRPRPRPCDDPRP | 0.0873 |
| RRIRIRPPRLPRPRPRPSNQPRP | -1.08 |

| Sequence | shrunken log2 fold change |
| --- | --- |
| RRIRLRPPRLPRPRPRPLMKPRP | 0.0215 |
| RRIRFRPPRLPRPRPRPHGSPRP | -0.0241 |
| RRIRTRPPRLPRPRPRPLYYPRP | -0.771 |
| RRIRRRPPRLPRPRPRPAMDPRP | 0.0975 |
| RRIRRRPPRLPRPRPRPEYDPRP | 0.109 |
| RRIRIRPPRLPRPRPRPHTQPRP | -0.124 |
| RRIRWRPPRLPRPRPRPSCFPRP | 0.486 |
| RRIRLRPPRLPRPRPRPPFPPRP | 0.455 |
| RRIRVRPPRLPRPRPRPAWMPRP | 0.0871 |
| RRIRNRPPRLPRPRPRPMDQPRP | -0.01 |
| RRIRWRPPRLPRPRPRPMINPRP | -0.212 |
| RRIRCRPPRLPRPRPRPWWLPRP | -0.0111 |
| RRIRTRPPRLPRPRPRPGLRPRP | 0.598 |
| RRIRERPPRLPRPRPRPRTQPRP | 0.111 |
| RRIRGRPPRLPRPRPRPECCPRP | 1.52 |
| RRIRTRPPRLPRPRPRPCEKPRP | -0.0336 |
| RRIRGRPPRLPRPRPRPSTQPRP | 0.82 |
| RRIRVRPPRLPRPRPRPLGRPRP | 0.267 |
| RRIRLRPPRLPRPRPRPAQDPRP | 0.392 |
| RRIRHRPPRLPRPRPRPIVDPRP | 0.0237 |
| RRIRARPPRLPRPRPRPPPTPRP | 1.13 |
| RRIRVRPPRLPRPRPRPFEKPRP | -0.00236 |
| RRIRSRPPRLPRPRPRPVTSPRP | -0.132 |
| RRIRKRPPRLPRPRPRPETYPRP | -0.00198 |
| RRIRRRPPRLPRPRPRPGITPRP | -0.0143 |

| Sequence | shrunken log2 fold change |
| --- | --- |
| RRIRKRPPRLPRPRPRPMGEPRP | -0.0199 |
| RRIRIRPPRLPRPRPRPDMFPRP | -0.17 |
| RRIRPRPPRLPRPRPRPQGYPRP | -0.0854 |
| RRIRYRPPRLPRPRPRPGVSPRP | 0.0695 |
| RRIRIRPPRLPRPRPRPYGDPRP | 0.0112 |
| RRIRDRPPRLPRPRPRPVGLPRP | 0.627 |
| RRIRCRPPRLPRPRPRPFWAPRP | -0.0403 |
| RRIRCRPPRLPRPRPRPTKAPRP | 0.209 |
| RRIRFRPPRLPRPRPRPCDQPRP | -0.0178 |
| RRIRIRPPRLPRPRPRPRAMPRP | -0.0601 |
| RRIRCRPPRLPRPRPRPGCMPRP | 0.00195 |
| RRIRGRPPRLPRPRPRPPPLPRP | 1.16 |
| RRIRARPPRLPRPRPRPPYCPRP | 0.276 |
| RRIRCRPPRLPRPRPRPHIQPRP | -0.73 |
| RRIRWRPPRLPRPRPRPWYDPRP | -0.31 |
| RRIRMRPPRLPRPRPRPCWQPRP | 0.0757 |
| RRIRSRPPRLPRPRPRPKSAPRP | 0.403 |
| RRIRGRPPRLPRPRPRPFQVPRP | 0.0301 |
| RRIRDRPPRLPRPRPRPIRQPRP | 0.193 |
| RRIRERPPRLPRPRPRPFCYPRP | -0.927 |
| RRIRCRPPRLPRPRPRPDHKPRP | -1.04 |
| RRIRERPPRLPRPRPRPQQDPRP | -0.108 |
| RRIRERPPRLPRPRPRPYTYPRP | -0.0595 |
| RRIRIRPPRLPRPRPRPYDIPRP | -0.0903 |
| RRIRVRPPRLPRPRPRPTHEPRP | 0.256 |
